Tests used:
Experiment in all cases: cell-based or functional assay
[1] = molecular target: HIV-1 92UG005 envelope glycoprotein (Env) on pseudovirus (HIV-1)
[2] = molecular target: HIV-1 Env of isolate 92BR020, clade B, on pseudovirus (HIV-1)
[3] = molecular target: HIV-1 Env of isolate 92UG024 (clade D pseudovirus) (HIV-1)
[4] = molecular target: HIV-1 Env of isolate APV_6, clade B, on pseudovirus (HIV-1)
[5] = molecular target: HIV-1 Env of isolate LAVI_C3 (HIV-1)
[6] = molecular target: HIV-1 Env of isolate MGRM-Chronic-B-001, clade B, on pseudovirus (HIV-1)
[7] = molecular target: HIV-1 Env of isolate MGRM-D-012 (clade D pseudovirus) (HIV-1)
[8] = molecular target: HIV-1 Env of isolate MGRM-D-019 (clade D pseudovirus) (HIV-1)
[9] = molecular target: HIV-1 Env of isolate MGRM-D-022 (clade D pseudovirus) (HIV-1)
[10] = molecular target: HIV-1 Env of isolate PVO.4 (Acute), clade B, on pseudovirus (HIV-1)
[11] = molecular target: HIV-1 Env of isolate VLGCB3, clade B, on pseudovirus (HIV-1)
[12] = molecular target: HIV-1 Env of pseudovirus MGRM-AE-001 (clade CRF01_AE) (HIV-1)
[13] = molecular target: HIV-1 Env of pseudovirus MGRM-AG-008 (clade CRF_AG) (HIV-1)
[14] = molecular target: HIV-1 Env of pseudovirus MGRM-AG-009 (clade CRF_AG) (HIV-1)
[15] = molecular target: HIV-1 Env of pseudovirus MGRM-Chronic-B-020 (HIV-1)
[16] = molecular target: HIV-1 Env of pseudovirus MGRM-F1-008 (HIV-1)
[17] = molecular target: HIV-1 Env of pseudovirus MGRM-G-009 (clade G) (HIV-1)
[18] = molecular target: HIV-1 Env of pseudovirus MGRM-G-015 (HIV-1, clade G isolate MGRM-G-015)
[19] = molecular target: aMLV envelope protein on pseudovirus
[20] = molecular target: HIV-1 Env of isolate 92TH021 (clade AE), on pseudovirus (HIV-1)
[21] = molecular target: HIV-1 Env of isolate 92UG114 (pseudovirus) (HIV-1)
[22] = molecular target: HIV-1 Env of isolate 98CN009 (pseudovirus) (HIV-1)
[23] = molecular target: HIV-1 Env of isolate JR-CSF (subtype B pseudovirus) (HIV-1) (UniProt P20871)
[24] = molecular target: HIV-1 Env of isolate MGRM-C-026 (pseudovirus) (HIV-1)
[25] = molecular target: HIV-1 Env of isolate MGRM-C-027 (HIV-1)
[26] = molecular target: HIV-1 Env of isolate MGRM-Chronic-B-023 (subtype B pseudovirus) (HIV-1)
[27] = molecular target: HIV-1 Env of isolate MGRM-D-012 (pseudovirus) (HIV-1)
[28] = molecular target: HIV-1 Env of isolate MGRM-D-018 (pseudovirus) (HIV-1)
[29] = molecular target: HIV-1 Env of isolate MGRM-D-021 (pseudovirus) (HIV-1)
[30] = molecular target: HIV-1 Env of isolate MGRM-D-029 (pseudovirus) (HIV-1)
[31] = molecular target: HIV-1 Env of isolate MGRM-F1-013 (HIV-1)
[32] = molecular target: HIV-1 Env of isolate MGRM-F1-021 (HIV-1)
[33] = molecular target: HIV-1 Env of isolate NL43 (subtype B pseudovirus) (HIV-1)
[34] = molecular target: HIV-1 JRFL Env (pseudovirus) (HIV-1)

1443_C16 (PG16) (TCN-116) (antibody), sequence (VH): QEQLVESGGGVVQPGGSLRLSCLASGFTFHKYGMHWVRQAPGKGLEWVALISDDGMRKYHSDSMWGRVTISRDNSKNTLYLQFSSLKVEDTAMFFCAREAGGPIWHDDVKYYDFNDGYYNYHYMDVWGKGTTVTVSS
1443_C16 (PG16) (TCN-116) (antibody), sequence (VL): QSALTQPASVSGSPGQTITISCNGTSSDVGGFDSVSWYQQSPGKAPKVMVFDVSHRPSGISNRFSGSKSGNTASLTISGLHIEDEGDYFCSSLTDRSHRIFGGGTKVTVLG

Row | Substance | IC50, pseudovirus neutralization [1] [µg/mL] | IC50 (µg/ml), pseudovirus neutralization [2] [µg/mL] | IC50 (µg/ml), pseudovirus neutralization [3] [µg/mL] | IC50 (µg/ml), pseudovirus neutralization [4] [µg/mL] | IC50 [5] [µg/mL] | IC50 (µg/ml), pseudovirus neutralization [6] [µg/mL] | IC50 (µg/ml), pseudovirus neutralization [7] [µg/mL] | IC50 (µg/ml), pseudovirus neutralization [8] [µg/mL] | IC50 (µg/ml), pseudovirus neutralization [9] [µg/mL] | IC50 (µg/ml), pseudovirus neutralization [10] [µg/mL] | IC50 (µg/ml), pseudovirus neutralization [11] [µg/mL] | IC50 [12] [µg/mL] | IC50 [13] [µg/mL] | IC50 [14] [µg/mL] | IC50 (µg/ml), pseudovirus neutralization [15] [µg/mL] | IC50 (µg/ml), pseudovirus neutralization [16] [µg/mL] | IC50 [17] [µg/mL] | IC50 (µg/ml), pseudovirus neutralization [18] [µg/mL] | IC50, pseudovirus neutralization [19] [µg/mL] | also measured
1 | b12 (antibody) | > 50 | > 50 | 45.6 | > 50 | 0.94 | 0.75 | 0.13 | > 50 | 17.6 | > 50 | 0.15 | 25.9 | > 50 | > 50 | 6.16 | > 50 | > 50 | > 50 | > 50 | 
2 | 2F5 (antibody) | 11.8 | > 50 | 0.95 | 0.25 | > 50 | 0.55 | 1.7 | 0.14 | 8.45 | > 50 | > 50 | 0.29 | 0.54 | 24.8 | 0.78 | 1.61 | 7.21 | 0.43 | > 50 | 
3 | 4E10 (antibody) | 8.86 | > 50 | 2.17 | 1.1 | 2.85 | 1.46 | 1.13 | 0.04 | 16.9 | 18.3 | 5.76 | 0.85 | 1.48 | 31.4 | 2.45 | 2.75 | 1.34 | 1.07 | > 50 | 
4 | 1495_C14 (PGC14) (antibody) | > 50 | 4 | > 50 | 23 | 12 | > 50 | > 50 | > 50 | > 50 | > 50 | 21 | > 50 | 45 | > 50 | > 50 | > 50 | > 50 | > 50 | > 50 | 
5 | 4858_P08 (PGT-123) (antibody) |  |  |  |  |  |  |  |  |  |  |  |  |  |  |  |  |  |  |  | neutralization IC50 [1]: 2.49 µg/mL; neutralization IC80 [1]: > 10 µg/mL; neutralization IC90 [1]: > 10 µg/mL; neutralization IC95 [1]: > 10 µg/mL; IC50, pseudovirus neutralization [20]: > 10 µg/mL; IC50, pseudovirus neutralization [21]: 0.005 µg/mL; IC50, pseudovirus neutralization [22]: 0.007 µg/mL; IC50 (µg/mL), pseudovirus neutralization [23]: 0.046 µg/mL; Primary Neutralization Index (B cell culture supernatant) [24]: 33.8; neutralization IC50 [25]: 0.02 µg/mL; IC50 (µg/mL), pseudovirus neutralization [26]: 0.055 µg/mL; IC50, pseudovirus neutralization [27]: > 50 µg/mL; IC50, pseudovirus neutralization [28]: 0.007 µg/mL; IC50, pseudovirus neutralization [29]: 11.1 µg/mL; IC50, pseudovirus neutralization [30]: > 50 µg/mL; IC50 (µg/mL), pseudovirus neutralization [31]: 0.08 µg/mL; IC50 (µg/mL), pseudovirus neutralization [32]: 0.307 µg/mL; IC50 (µg/mL), pseudovirus neutralization [33]: > 50 µg/mL; neutralization IC50 (pseudovirus) [34]: 0.0283 µg/mL
6 | 2G12 (antibody) | > 50 | 4.84 | 0.42 | 1.9 | > 50 | 0.08 | > 50 | > 50 | > 50 | 0.8 | 7.9 | > 50 | > 50 | > 50 | 0.2 | > 50 | > 50 | > 50 | > 50 | 
7 | 5141_B17 (PGT-126) (antibody) | 0.0181 |  |  |  |  |  |  |  |  |  |  |  |  |  |  |  |  |  |  | IC80 (pseudovirus neutralization) [1]: 0.145 µg/mL; IC90 (pseudovirus neutralization) [1]: 0.553 µg/mL; IC95 (pseudovirus neutralization) [1]: 2.45 µg/mL; IC50, pseudovirus neutralization [20]: 0.115 µg/mL; IC50, pseudovirus neutralization [21]: 0.038 µg/mL; IC50, pseudovirus neutralization [22]: 0.019 µg/mL; IC50 (µg/mL), pseudovirus neutralization [23]: 0.008 µg/mL; Polyclonal Transfectant Neutralization Index [24]: 102; Primary Neutralization Index (B cell culture supernatant) [24]: 654; neutralization IC50 [25]: 15.6 µg/mL; IC50 (µg/mL), pseudovirus neutralization [26]: > 50 µg/mL; IC50, pseudovirus neutralization [27]: > 50 µg/mL; IC50, pseudovirus neutralization [28]: 0.009 µg/mL; IC50, pseudovirus neutralization [29]: 0.047 µg/mL; IC50, pseudovirus neutralization [30]: > 50 µg/mL; IC50 (µg/mL), pseudovirus neutralization [31]: > 50 µg/mL; IC50 (µg/mL), pseudovirus neutralization [32]: > 50 µg/mL; IC50 (µg/mL), pseudovirus neutralization [33]: > 50 µg/mL; neutralization IC50 (pseudovirus) [34]: 0.014 µg/mL
8 | 1443_C16 (PG16) (TCN-116) (antibody) | > 50 | > 50 | 24 | 0.29 | 9.55 | > 50 | 0.35 | 0.01 | > 50 | 5.43 | 0.4 | 4.33 | 0.002 | > 50 | > 50 | > 50 | > 50 | 5.33 | > 50 | 

Source: patent US20250320281A1
